Laboratory results: patent publication US20230011916A1 (BEIGENE, published 2023)

B1: 445-2 (antibody, V domains shown)
VH: QVQLVQSGAEVKKPGSSVKVSCKASGYKFTSYIIHWVRQAPGQGLEWMGYINPYNEGTRYAQKFQGRVTLTADKSTSTAYMELSSLRSEDTAVYYCARGYYGSSYAMDYWGQGTTVTVSS
VL: DIQMTQSPSSLSASVGDRVTITCSASQGISNYLNWYQQKPGKAIKLLIYDASTLYSGVPSRFSGSGSGTDFTLTISSLQPEDFATYYCQQYSKLPYTFGGGTKVEIK
B2: 445-1 (antibody, V domains shown)
VH: QVQLVQSGAEVKKPGSSVKVSCKASGYKFTSYIIHWVRQAPGQGLEWMGYINPYNDGTRYNQKFQGRVTLTSDKSTSTAYMELSSLRSEDTAVYYCARGYYGSSYAMDYWGQGTTVTVSS
VL: DIQMTQSPSSLSASVGDRVTITCSASQGISNYLNWYQQKPGKAIKLLIYDTSTLYSGVPSRFSGSGSGTDYTLTISSLQPEDFATYYCQQYSKLPYTFGGGTKVEIK
B3: 445-2 with K28T in the heavy chain and S24R in the light chain (antibody, human IgG1, V domains shown)
VH: QVQLVQSGAEVKKPGSSVKVSCKASGYTFTSYIIHWVRQAPGQGLEWMGYINPYNEGTRYAQKFQGRVTLTADKSTSTAYMELSSLRSEDTAVYYCARGYYGSSYAMDYWGQGTTVTVSS
VL: DIQMTQSPSSLSASVGDRVTITCRASQGISNYLNWYQQKPGKAIKLLIYDASTLYSGVPSRFSGSGSGTDFTLTISSLQPEDFATYYCQQYSKLPYTFGGGTKVEIK
B4: 445-2 with Y27G in the heavy chain and S24R in the light chain (antibody, human IgG1, V domains shown)
VH: QVQLVQSGAEVKKPGSSVKVSCKASGGKFTSYIIHWVRQAPGQGLEWMGYINPYNEGTRYAQKFQGRVTLTADKSTSTAYMELSSLRSEDTAVYYCARGYYGSSYAMDYWGQGTTVTVSS
VL: DIQMTQSPSSLSASVGDRVTITCRASQGISNYLNWYQQKPGKAIKLLIYDASTLYSGVPSRFSGSGSGTDFTLTISSLQPEDFATYYCQQYSKLPYTFGGGTKVEIK
B5: 445-3 (antibody, V domains shown)
VH: QVQLVQSGAEVKKPGSSVKVSCKASGYKFTSYIIHWVRQAPGQGLEWMGYINPYNEGTRYNQKFQGRVTLTADKSTSTAYMELSSLRSEDTAVYYCARGYYGSSYAMDYWGQGTTVTVSS
VL: DIQMTQSPSSLSASVGDRVTITCRASQGISNYLNWYQQKPDGAIKLLIYDASTLYSGVPSRFSGSGSGTDFTLTISSLQPEDFATYYCQQYSKLPYTFGGGTKVEIK
B6: 445-3 Fab (Fab, V domains shown)
VH: QVQLVQSGAEVKKPGSSVKVSCKASGYKFTSYIIHWVRQAPGQGLEWMGYINPYNEGTRYNQKFQGRVTLTADKSTSTAYMELSSLRSEDTAVYYCARGYYGSSYAMDYWGQGTTVTVSS
VL: DIQMTQSPSSLSASVGDRVTITCRASQGISNYLNWYQQKPDGAIKLLIYDASTLYSGVPSRFSGSGSGTDFTLTISSLQPEDFATYYCQQYSKLPYTFGGGTKVEIK

Key:
[1] = biological target: T1, full-length human OX40 expressed on HuT78 cells (HuT78/OX40) (human, UniProt P43489 29-277); experiment: flow cytometry on live HuT78/OX40 cells; Mean
T1 sequence: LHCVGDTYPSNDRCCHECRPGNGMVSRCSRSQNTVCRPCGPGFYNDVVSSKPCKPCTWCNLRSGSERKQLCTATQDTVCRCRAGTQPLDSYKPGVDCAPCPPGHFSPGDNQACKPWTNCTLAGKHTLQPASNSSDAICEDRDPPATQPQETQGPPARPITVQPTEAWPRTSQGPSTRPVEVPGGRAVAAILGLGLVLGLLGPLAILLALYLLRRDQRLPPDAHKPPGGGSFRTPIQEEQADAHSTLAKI
Procedure: (§1) To evaluate the binding activity of anti-OX40 antibodies to bind OX40 expressed on the surface of live cells, HuT78 cells were transfected with human OX40 as described in Example 1 to create an OX40 expressing line. Live HuT78/OX40 cells were seeded in 96-well plate and were incubated with a serial dilution of various anti-OX40 antibodies. Goat anti-Human IgG-FITC (Cat: A0556, Beyotime) was used as a secondary antibody to detect antibody binding to the cell surface. EC₅₀ values for dose-dependent binding to human OX40 were determined by fitting the dose-response data to the four-parameter logistic model with GraphPad Prism.

[2] = biological target: T1, full-length human OX40 expressed on …; experiment: flow cytometry on live HuT78/OX40 cells; Test 1
Procedure: as §1

[3] = biological target: T1, full-length human OX40 expressed on …; experiment: flow cytometry on live HuT78/OX40 cells; Test 2
Procedure: as §1

[4] = biological target: T2, recombinant OX40 protein with a His tag (Cat: 10481-H08H, Sino Biological) (UniProt P43489 29-216); experiment: SPR, BIAcore T-200; antibody captured by anti-human IgG, OX40-His flowed; Mean
T2 construct: Bought protein; also called OX40-His (bought); not shown: His tag
T2 sequence (looked up): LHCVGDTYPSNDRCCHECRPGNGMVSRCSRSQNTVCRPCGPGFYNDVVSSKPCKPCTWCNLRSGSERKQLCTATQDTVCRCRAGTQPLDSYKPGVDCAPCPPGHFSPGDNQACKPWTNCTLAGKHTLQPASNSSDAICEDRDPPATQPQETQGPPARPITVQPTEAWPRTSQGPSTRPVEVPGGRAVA
Source text: (§2) The anti-OX40 antibodies were characterized for their binding kinetics and affinity by SPR assays using BIAcore™ T-200 (GE Life Sciences). Briefly, anti-human IgG antibody was immobilized on an activated CM5 biosensorchip (Cat: BR100530, GE Life Sciences). An antibody with human IgG Fc region was flowed over the chip surface and captured by anti-human IgG antibody. Then a serial dilution of recombinant OX40 protein with a His tag (Cat: 10481-H08H, Sino Biological) was flowed over the chip surface and changes in surface plasmon resonance signals were analyzed to calculate the association rates (ka) and dissociation rates (kd) by using the one-to-one Langmuir binding model (BIA Evaluation Software, GE Life Sciences). The equilibrium dissociation constant (KD) was calculated as the ratio kd/ka.

[5] = biological target: T1, full-length human OX40 expressed on …; experiment: FACS; cells not named on the sheet, HuT78/OX40 cells as in Example 5
[6] = biological target: T2, recombinant OX40 protein with a His tag …; experiment: SPR, BIAcore T-200; antibody captured by anti-human IgG, OX40-His flowed; Test 1
Source text: as §2

[7] = biological target: T2, recombinant OX40 protein with a His tag …; experiment: SPR, BIAcore T-200; antibody captured by anti-human IgG, OX40-His flowed; Test 2
Source text: as §2

[8] = biological target: T1, full-length human OX40 expressed on …; experiment: FACS; cells not named on the sheet, HuT78/OX40 cells as in Example 5; remark: listed apart in the source
[9] = biological target: T1, full-length human OX40 expressed on …; experiment: FACS; against 445-2
[10] = biological target: T2, recombinant OX40 protein with a His tag …; experiment: Biacore (SPR); antigen not named on the sheet, OX40-His as in Example 4
[11] = biological target: T2, recombinant OX40 protein with a His tag …; experiment: Biacore; against 445-2
[12] = biological target: T1, full-length human OX40 expressed on …; experiment: flow cytometry on HuT78/OX40 cells
Procedure: (§3) Goat anti-Human IgG-FITC (Cat: A0556, Beyotime) was used as a secondary antibody for detection. EC₅₀ values for dose-dependent binding to human and cynomolgus monkey native OX40s were determined by fitting the dose-response data to the four-parameter logistic model with GraphPad Prism.

[13] = biological target: T3, cynomolgus OX40 expressed on HuT78 cells (HuT78/cynoOX40) (cynomolgus monkey); experiment: flow cytometry on HuT78/cynoOX40 cells
T3 construct: whole, on cells; also called cynomolgus monkey OX40
Procedure: as §3

[14] = biological target: T4, human OX40/IgG1 fusion H153A (human, UniProt P43489 29-216); experiment: SPR, BIAcore 8K, OX40/IgG1 mutant immobilized, 445-3 Fab flowed
T4 construct: not shown: Fc domain of human IgG1 wild type heavy chain
T4 chain: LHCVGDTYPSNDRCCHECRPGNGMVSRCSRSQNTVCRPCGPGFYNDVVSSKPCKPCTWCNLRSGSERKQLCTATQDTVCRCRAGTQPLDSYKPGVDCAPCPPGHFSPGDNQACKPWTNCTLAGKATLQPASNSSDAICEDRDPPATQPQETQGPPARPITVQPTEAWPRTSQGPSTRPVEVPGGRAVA
Procedure: Briefly, OX40 mutants and wild type OX40 were immobilized on a CM5 biosensor chip (Cat: BR100530, GE Life Sciences) using EDC and NHS. […] The changes in surface plasmon resonance signals were analyzed to calculate the association rates (ka) and dissociation rates (kd) by using the one-to-one Langmuir binding model (BIA Evaluation Software, GE Life Sciences). The equilibrium dissociation constant (KD) was calculated as the ratio kd/ka. The KD shift fold of mutant was calculated as the ratio Mutant KD/WT KD.

Binder	EC50 [1] [µg/mL]	Top(MFI) [1] [MFI]	EC50 [2] [µg/mL]	EC50 [3] [µg/mL]	Ka [4] [M⁻¹]	Kd [4] [nM]	EC50 [5] [µg/mL]	Top(MFI) [5] [MFI]	Ka [6] [M⁻¹]	Kd [6] [nM]	koff [6] [s⁻¹]	kon [6] [M⁻¹ s⁻¹]	Ka [7] [M⁻¹]	Kd [7] [nM]	koff [7] [s⁻¹]	kon [7] [M⁻¹ s⁻¹]	Kd [10] [nM]	koff [10] [s⁻¹]	kon [10] [M⁻¹ s⁻¹]	also measured
B1	0.343	620	0.323	0.363	7.5e+07	13.5	0.397	760	7.1e+07	14.2	0.0039	276000	7.8e+07	12.8	0.00264	206000				
B2	0.285	525	0.293	0.278	5.9e+07	17.1			5.6e+07	17.8	0.00277	156000	6.1e+07	16.4	0.00389	237000				EC50 [8]: 0.336 µg/mL; Top(MFI) [8]: 500 MFI
B3							0.66	750									12.9	0.00574	444000	fold increase to the EC50 over 445-2 [9]: 1.7 fold
B4							0.755	630									21.5	0.00135	62500	fold increase to the KD over 445-2 [11]: 1.7 fold
B5	0.328	910	0.337	0.319	1.06e+08	9.47	0.462	990	1.09e+08	9.16			1.03e+08	9.77			8.51			EC50 [12]: 0.174 µg/mL; EC50 [13]: 0.171 µg/mL
B6																				binding result [14]: no binding
